Results reported in patent publication US20220235143A1 (Memorial Sloan Kettering, published 2022).
Numbering of substitutions follows the chain as printed. Where no end group is shown, it is not given here.

T1: MUC16 c114 expressed on transfected SKOV3 cells (SKOV3^c114) (human)
T1 construct: also called deltaMUC16c114; c114 peptide
T1 chain: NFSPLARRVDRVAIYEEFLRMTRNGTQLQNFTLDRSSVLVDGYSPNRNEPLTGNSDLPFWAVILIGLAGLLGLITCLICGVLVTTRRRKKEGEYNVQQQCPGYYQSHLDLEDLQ

T2: MUC16 peptide-2 glycopeptide (human, also: glycopeptide, glycan and its site not given here)
T2 peptide: TLDRSSVLVDGYSPNRNE

T3: biotinylated MUC16 peptide-2 (human, also: biotinylated (position not given here))
T3 construct: Captured on streptavidin sensor (SPR) or streptavidin magnetic beads (radioligand assays); also called biotinylated peptide-2
T3 peptide: TLDRSSVLVDGYSPNRNE

B1: 4H11-H2L2 hIgG (antibody)
heavy: not shown
light: DIVLTQSPDSLAVSLGERVTMNCKSSQSLLNSRTRKNQLAWYQQKPGQSPELLIYWASTRQSGVPDRFSGSGSGTDFTLTISSVQAEDVAVYYCQQSYNLLTFGQGTKLEIKRTVAAPSVFIFPPSDEQLKSGTASVVCLLNNFYPREAKVQWKVDNALQSGNSQESVTEQDSKDSTYSLSSTLTLSKADYEKHKVYACEVTHQGLSSPVTKSFNRGEC
B2: 4H11-H2L1 hIgG (antibody)
heavy: not shown
light: B1 light with V3E, D9S, L15A, Q105P
B3: 18C6 H1L1 humanized antibody (antibody, human IgG1, kappa, V domains shown)
VH: QVTLKESGPGILQPTQTLTLTCTFSGFSLSTVGMGVGWSRQPSGKGLEWLAHIWWDDEDKYYNPALKSRLTITKDTSKNQVFLKITNVDTADTATYYCTRIGTAQATDALDYWGQGTLVTVSS
VL: DIVMTQSAPSVPVTPGESVSISCRSSKSLLHSNGNTYLYWFLQKPGQSPQRLIYYMSNLASGVPDRFSGRGSGTDFTLKISRVEAEDVGVYYCMQSLEYPLTFGGGTKLEIKR
notes: also called H1L1 humanized 18C6 antibody
B4: 18C6 H1L2 humanized antibody (antibody, human IgG1, kappa, V domains shown)
VH: B3 VH
VL: B3 VL with P9L, V11L, S18P, R70S
B5: 18C6 H2L1 humanized antibody (antibody, human IgG1, kappa, V domains shown)
VH: B3 VH with G10T, I11L, L12V, Q13K, F82V, K84T, T90P, A91V
VL: B3 VL
B6: 18C6 H2L2 humanized antibody (antibody, human IgG1, kappa, V domains shown)
VH: B3 VH with G10T, I11L, L12V, Q13K, F82V, K84T, T90P, A91V
VL: B3 VL with P9L, V11L, S18P, R70S
B7: 4H11-H1L1 hIgG (antibody)
heavy: not shown
light: B1 light with V3E, D9S, L15A, Q105P
notes: also called humanized 4H11 H1L1
B8: 4H11-H1L2 hIgG (antibody)
heavy: not shown
light: B1 light
notes: also called H1L2 humanized 4H11 antibody
B9: humanized variant of 4H11 (hu4H11), DFO immunoconjugate (antibody, V domains shown)
VH: EVKLQESGGGFVKPGGSLRVSCAASGFTFSSYAMSWVRLAPEMRLEWVATISSAGGYIFYSDSVQGRFTISRDNAKNSLHLQMGSLRSGDTAMYYCARQGFGNYGDYYAMDYWGQGTTVTVSS
VL: DIELTQSPSSLAVSAGERVTMNCKSSQSLLNSRTRKNQLAWYQQKPGQSPELLIYWASTRQSGVPDRFSGSGSGTDFTLTISSVQAEDVAVYYCQQSYNLLTFGPGTKLEIKR
modifications: p-SCN-Bn-DFO on lysine epsilon-amines, ~1 DFO conjugated per antibody; 89Zr-labelled where named [^89Zr]Zr-DFO-hu4H11
notes: both entries are variable regions (H1 and L1); Full-length antibody; also called DFO-hu4H11; [^89Zr]Zr-DFO-hu4H11

Target: T1, MUC16 c114 expressed on transfected …
Test: FACS, geometric mean PE fluorescence, SKOV3 c114 transfectant cells, mouse anti-human IgG1-Fc-PE detection; same antibody on vector control SKOV3 phrGFP about 170, at the level of secondary alone (about 170)
Experimental: (§1) In a separate experiment, full-length humanized 4H11 antibodies (IgG1-Fc) comprising different combinations of humanized heavy and light chain variable regions of the 4H11 antibody were assayed. An anti-human IgG1-Fc-PE antibody was employed for fluorescent staining of MUC16-positive OVCAR3 or SKOV3 transfectant cells expressing MUC16 peptides. FIGS. 10A and 10B provide data for mean PE fluorescence and percentage PE positive cells for the 4H11 H1L1, H1L2, H2L1 and H2L2 antibodies assayed.

Binder | binding result
B1 | binds

Target: T1, MUC16 c114 expressed on transfected …
Test: FACS, geometric mean PE fluorescence, SKOV3 c114 transfectant cells, mouse anti-human IgG1-Fc-PE detection; same antibody on vector control SKOV3 phrGFP about 200, secondary alone about 170
Experimental: as §1

Binder | binding result
B2 | binds

Target: T2, MUC16 peptide-2 glycopeptide
Test: SPR, BIAcore X100, peptide-2 glycopeptide over antibody captured by anti-IgG
Experimental: Ligand capture was performed by flowing the humanized anti-Muc16 antibodies 18C6 H1L1, 18C6 H1L2, 18C6 H2L1, 18C6 H2L2) and the parental 18C6 mouse antibody onto the respective chips under saturating conditions. The MUC16 peptide-2 was then flowed over at the various test concentrations (150 nM, 75 nM, 37.5 nM, 18.8 nM, and 9.4 nM). The assay conditions used for measuring the effects of the glycopeptide were as follows: association time of 2 minutes, disassociation time of 10 min, and a flow rate of 30 μl per minute.

Binder | Kd [nM] | koff [s⁻¹] | kon [M⁻¹ s⁻¹]
B3 | 6.7 | 0.0019 | 287000
B4 | 8.7 | 0.0025 | 287000
B5 | 9.9 | 0.0054 | 549000
B6 | 9.2 | 0.004 | 433000

Target: T3, biotinylated MUC16 peptide-2
Test: SPR, BIAcore X100, single cycle kinetics, antibody over captured biotinylated peptide-2
Experimental: The relative binding affinities of 4H11 humanized antibodies (H1L1, H1L2, H2L1, H2L2) were compared by surface plasmon resonance using a BIACore-X100 instrument with a Biotin CAP Chip (GE Healthcare). The assay format consisted of capturing the biotinylated MUC16 peptide-2 ([…]; SEQ ID NO: 52) onto a streptavidin coated sensor and flowing over the antibody at various concentrations using single cycle kinetics. Ligand capture was performed by flowing 0.5 μg/ml of biotinylated MUC16 peptide-2 at a rate of 5 μl per minute for 65 seconds. The 4H11 humanized antibodies were then flowed over at the various test concentrations (150 nM, 75 nM, 37.5 nM, 18.8 nM, and 9.4 nM). The assay conditions used for measuring the effects of the added antibodies were as follows: association time of 2 minutes, disassociation time of 10 min, and a flow rate of 30 μl per minute.

Binder | Kd [nM] | koff [s⁻¹] | kon [M⁻¹ s⁻¹]
B7 | 1.57 | 0.000146 | 92700
B2 | 1.33 | 0.000101 | 76100
B8 | 2.19 | 0.000198 | 90400
B1 | 2.37 | 0.000175 | 73800

Target: T1, MUC16 c114 expressed on transfected …
Test: flow cytometry, PE-Texas Red axis 10^0 to 10^5, secondary antibody detection; untransfected SKOV3 Cells + DFO-hu4H11 + Sec Ab lie with their controls below about 5 x 10^2

Binder | binding result
B9 | binds
